Common to all, as to experiment: FP
Test [1] concerns the target T1, SHANK3 PDZ (UniProt Q9BYB0).
T1 chain: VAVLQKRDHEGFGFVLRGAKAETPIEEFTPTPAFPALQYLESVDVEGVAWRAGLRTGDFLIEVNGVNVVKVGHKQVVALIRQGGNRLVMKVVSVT

Test [2] has as its target T2, SHANK2 PDZ (UniProt Q9UPX8).
T2 chain: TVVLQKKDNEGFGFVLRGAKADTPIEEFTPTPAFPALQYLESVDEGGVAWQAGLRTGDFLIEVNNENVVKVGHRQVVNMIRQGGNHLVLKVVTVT

Test [3] deals with T3, SHANK1 PDZ (UniProt Q9Y566).
T3 chain: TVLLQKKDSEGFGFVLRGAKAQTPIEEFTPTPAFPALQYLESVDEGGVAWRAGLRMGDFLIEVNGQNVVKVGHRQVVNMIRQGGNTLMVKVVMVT

In test [4] the target is T4, PSD-95 PDZ2 (UniProt P78352).
T4 chain: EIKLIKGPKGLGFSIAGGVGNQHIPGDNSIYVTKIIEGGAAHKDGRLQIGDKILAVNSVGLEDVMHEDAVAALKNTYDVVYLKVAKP

Test [5] deals with T5, PSD-95 PDZ3 (UniProt P78352).
T5 chain: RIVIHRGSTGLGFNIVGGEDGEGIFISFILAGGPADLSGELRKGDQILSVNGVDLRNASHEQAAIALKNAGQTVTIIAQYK

What is called Kd is a measure of binding affinity in units of concentration. Read a low Kd as tighter binding.

As for YNRTNRSRMPNLNDLKETAL [CDKL5-1 941-960], the Kd in test [1] amounted to 8.6 µM; in test [2] it was 5.2 µM; in test [3], 7.6 µM; in test [4] it was 31.3 µM; in test [5], 40.7 µM.

These data come from article PMC13787487 (2026).
